One substance from patent US9188587 can be followed below.

In assay [1] the target is I^125-αDTX-labelled VGKCs (Kv1 complexes) in digitonin-solubilised rabbit cortex extract.
The target is the same in assay [2]. The source holds these as a separate data set.

Take “goat anti Lgi1 antibody (Santa Cruz C19 sc-9583 and N18 sc-9581)”: in assay [1], the percent of αDTX binding sites immunoprecipitated was determined as 61%. Moreover, the percent of total I^125-αDTX binding sites precipitated in assay [2] is greater than 60%.
